Data taken from patent publication US20230192839A1, “ANTIBODIES HAVING CONDITIONAL AFFINITY AND METHODS OF USE THEREOF” (PFIZER INC., priority 2017, published 2023).
Residue numbers refer to the chain shown, from its start.

B1: P01_B02: anti-CD33 clone with increased affinity in presence of MTX; VH SEQ ID NO: 31, VL SEQ ID NO: 32 (antibody, V domains shown)
VH: QVQLVESGGGLVQAGGSLRLSCAASRRSSRSWAMHWVRQAPGKGLEWVAVISYDGRLKYYADSVKGRFTISRDNAEYLVYLQMNSLRAEDTAVYYCAAADWYSGGGDALDIWGQGTLVTVSS
VL: DIQMTQSPSSLSASVGDRVTITCRASQTIYNYLNWYQQKPGKAPKLLIYGASNLQSGVPSRFSGSGSGTDFTLTISSLQPEDFATYYCQQTYSSPTFGQGTKVEIK
modifications: Synthetic Antibody
B2: P01_A09: anti-CD33 clone with conditional affinity; VH SEQ ID NO: 3, VL SEQ ID NO: 4; tested as scFv-Fc (antibody, V domains shown)
VH: QVQLVESGGGLVQAGGSLRLSCAASRRSSRSWAMHWVRQAPGKGLEWVAVISYDGRLKYYADSVKGRFTISRDNAEYLVYLQMNSLRAEDTAVYYCAAERPTSDGSTGGMDVWGQGTLVTVSS
VL: B1 VL with T28S, Y30S, N31S, N53T, T91S, P95G
B3: P16_E06: anti-CD33 clone with conditional affinity; VH SEQ ID NO: 29, VL SEQ ID NO: 30 (antibody, V domains shown)
VH: QVQLVESGGGLVQAGGSLRLSCAASRRSSRSWAMHWVRQAPGKGLEWVAVISYDGRLKYYADSVKGRFTISRDNAEYLVYLQMNSLRAEDTAVYYCAAEGGDYPGTSDGGLDIWGQGTLVTVSS
VL: B1 VL with T28S, Y30S, N53S, T91S, S94A, P95G
modifications: Synthetic Antibody
B4: P02_C02: anti-CD33 reference clone, less than 2-fold MTX effect; VH SEQ ID NO: 11, VL SEQ ID NO: 12 (antibody, V domains shown)
VH: QVQLVESGGGLVQAGGSLRLSCAASRRSSRSWAMHWVRQAPGKGLEWVAVISYDGRLKYYADSVKGRFTISRDNAEYLVYLQMNSLRAEDTAVYYCAAEGGMGLDPWGQGTLVTVSS
VL: B1 VL with Y30S, N31S, G50A, Q55H, T91S, P95G
modifications: Synthetic Antibody
B5: P08_C08: anti-CD33 clone with conditional affinity; VH SEQ ID NO: 27, VL SEQ ID NO: 28 (antibody, V domains shown)
VH: B2 VH with R100G, P101S, T102G, D104T, G105D, S106G, T107S, G109A, M110I
VL: B1 VL with T28S, Y30G, N31S, G50A, N53S, T91S, P95G, T96S
modifications: Synthetic Antibody
B6: P02_A10: anti-CD33 clone with conditional affinity; VH SEQ ID NO: 9, VL SEQ ID NO: 10 (antibody, V domains shown)
VH: QVQLVESGGGLVQAGGSLRLSCAASRRSSRSWAMHWVRQAPGKGLEWVAVISYDGRLKYYADSVKGRFTISRDNAEYLVYLQMNSLRAEDTAVYYCAAESEWDTGGFDVWGQGTLVTVSS
VL: B1 VL with T28S, Y30G, N31S, G50S, A51S, T91S, S93T, P95G
modifications: Synthetic Antibody
B7: P04_C09: anti-CD33 clone with conditional affinity; VH SEQ ID NO: 23, VL SEQ ID NO: 24 (antibody, V domains shown)
VH: QVQLVESGGGLVQAGGSLRLSCAASRRSSRSWAMHWVRQAPGKGLEWVAVISYDGRLKYYADSVKGRFTISRDNAEYLVYLQMNSLRAEDTAVYYCAAEANESDSGGIDVWGQGTLVTVSS
VL: B1 VL with Y30G, N31G, G50A, N53S, T91G, P95G, T96A
modifications: Synthetic Antibody
B8: P02_E08: anti-CD33 clone with conditional affinity; VH SEQ ID NO: 37, VL SEQ ID NO: 38; also as scFv in CAR (antibody, V domains shown)
VH: B6 VH with E99S, S100D, E101Y, W102D, D103G, T104G, G106L, V109L
VL: QSVLTQPPSASGTPGQRVTISCSGSNSNIGDNYVHWYQQLPGTAPKLLIYMNNQRPSGVPDRFSGSKSGTSASLAISGLRSEDEADYYCATWDDSLSGVVFGTGTKLTVL
modifications: Synthetic Antibody
notes: also as scFv in CAR
B9: P03_H04: anti-CD33 clone with conditional affinity; VH SEQ ID NO: 39, VL SEQ ID NO: 40; also as scFv in CAR (antibody, V domains shown)
VH: QVQLVESGGGLVQAGGSLRLSCAASRRSSRSWAMHWVRQAPGKGLEWVAVISYDGRLKYYADSVKGRFTISRDNAEYLVYLQMNSLRAEDTAVYYCAADPHDGYGGGPGFDYWGQGTLVTVSS
VL: B8 VL with N26S, D31S, H35Y, M51R, N52S, T91A, S95T, G98A
modifications: Synthetic Antibody
notes: also as scFv in CAR
B10: P04_C05: anti-CD33 clone with conditional affinity; VH SEQ ID NO: 41, VL SEQ ID NO: 42 (antibody, V domains shown)
VH: QVQLVESGGGLVQAGGSLRLSCAASRRSSRSWAMHWVRQAPGKGLEWVAVISYDGRLKYYADSVKGRFTISRDNAEYLVYLQMNSLRAEDTAVYYCAAGLPWTDYWGQGTLVTVSS
VL: QSVLTQPPSASGTPGQRVTISCSGSNSNIGSNYVSWYQQLPGTAPKLLIYSNNQRPSGVPDRFSGSKSGTSASLAISGLRSEDEADYYCAAWDDRLSVVFGTGTKLTVL
modifications: Synthetic Antibody

The molecules below were run on human CD33 (assay: Biacore SPR binding kinetics of anti-CD33 scFv-Fc clones with or without 10 µM MTX). Conditions: 10 µM MTX vs 0 µM MTX.
Source text: The first 4 rounds of panning used biotinylated CD33 antigen captured on streptavidin or neutravidin coated 96-well plates. […] 1536 clones were randomly chosen from the 4th and 5th round of panning against the CD33 antigen and their binding specificity determined by phage ELISA. Clones that specifically bound to CD33 were sequenced and all unique clones were subjected to a phage competition ELISA to assess their relative affinities to CD33 and sensitivity to MTX by measuring their binding strengths in the presence or absence of 10 µM (micromolar) MTX (i.e. in 0 or 10 µM MTX).
All binding kinetics analysis was performed on label-free Biacore surface plasmon biosensors (Biacore T200™ from GE Life Sciences) at 37° C. in 10 mM Hepes pH 7.4, 150 mM NaCl, 0.05% Tween-20 (HBST+), with or without 10 µM MTX. The Biacore data were processed in Biacore T200 Evaluation Software, and the data were double-referenced (Myszka, 1999, J Mol Recognit 12(5):279-284) and fit globally to a simple Langmuir with mass transport model to determine the equilibrium dissociation constant, KD, from the ratio of the kinetic rate constants (KD = koff/kon). In some cases the binding of antigen was very low (or not detectable) in the presence of 10 µM MTX and as a result kinetic rate constants could not be accurately determined. In these cases, a KD (or KD limit) was estimated based on the binding response at the highest analyte concentration tested or based on the typical limit of detection for a Biacore T200.

Row | Molecule | affinity for CD33 in the presence of MTX as compared to absence (in words)
1 | B1 | increased affinity for CD33 in the presence of 10 µM MTX

Same assay, conditions: CD33

Row | Molecule | times greater affinity for CD33 in the presence of 10 µM MTX as compared to in 0 µM MTX
2 | B1 | about 10 times

Same assay, conditions: CD33; 0 µM MTX; 37° C., pH 7.4; scFv-Fc

Row | Molecule | koff, kinetics toward antigen with 0 µM MTX | kon, kinetics toward antigen with 0 µM MTX
3 | B1 | 0.0026 s⁻¹ | 140000 M⁻¹ s⁻¹
4 | B2 | 0.017 s⁻¹ | 110000 M⁻¹ s⁻¹
5 | B3 | 0.011 s⁻¹ | 120000 M⁻¹ s⁻¹
6 | B4 | 0.02 s⁻¹ | 92000 M⁻¹ s⁻¹
7 | B5 | 0.0045 s⁻¹ | 63000 M⁻¹ s⁻¹
8 | B6 | 0.044 s⁻¹ | 84000 M⁻¹ s⁻¹
9 | B7 | 0.0018 s⁻¹ | 160000 M⁻¹ s⁻¹
10 | B8 | 0.01 s⁻¹ | 47000 M⁻¹ s⁻¹
11 | B9 | 0.026 s⁻¹ | 72000 M⁻¹ s⁻¹
12 | B10 | 0.0021 s⁻¹ | 83000 M⁻¹ s⁻¹

Same assay, conditions: CD33; 10 µM MTX; 37° C., pH 7.4; koff/kon, or estimated from binding response / limit of detection for weak interactions; read-out: KD, kinetics toward antigen with 10 µM MTX

Row | Molecule | Kd
13 | B6 | > 9.02 µM
14 | B8 | > 0.726 µM
15 | B9 | > 15.7 µM

Same assay, conditions: CD33; 10 µM MTX; 37° C., pH 7.4; scFv-Fc

Row | Molecule | koff, kinetics toward antigen with 10 µM MTX | kon, kinetics toward antigen with 10 µM MTX
16 | B1 | 0.0006 s⁻¹ | 390000 M⁻¹ s⁻¹
17 | B3 | 0.087 s⁻¹ | 75000 M⁻¹ s⁻¹
18 | B4 | 0.025 s⁻¹ | 110000 M⁻¹ s⁻¹
19 | B5 | 0.051 s⁻¹ | 94000 M⁻¹ s⁻¹
20 | B7 | 0.0089 s⁻¹ | 44000 M⁻¹ s⁻¹
21 | B10 | 0.013 s⁻¹ | 45000 M⁻¹ s⁻¹
